The results in this text go back to patent US20220098269A1 (IMMATICS BIOTECHNOLOGIES, published 2022).

First the molecules themselves.
B1: IFDETGRF (peptide)
peptide: IFDETGRF
B2: FHYDDTAGYF (peptide)
peptide: FHYDDTAGYF
B3: GYIDDVTLI (peptide)
peptide: GYIDDVTLI
B4: IYPDASLLIQNI (peptide)
peptide: IYPDASLLIQNI
B5: VFHDHTYHL (peptide)
peptide: VFHDHTYHL
B6: FYDNSVIIF (peptide)
peptide: FYDNSVIIF
B7: QYQDTTVSF (peptide)
peptide: QYQDTTVSF
B8: FFQDSTFSF (peptide)
peptide: FFQDSTFSF
B9: KLTDNSNQF (peptide)
peptide: KLTDNSNQF
B10: FYDLSIQSF (peptide)
peptide: FYDLSIQSF
B11: IYLDRTLLTTI (peptide)
peptide: IYLDRTLLTTI
B12: YWDETLKEF (peptide)
peptide: YWDETLKEF
B13: SYDETKIKF (peptide)
peptide: SYDETKIKF
B14: VYTDISHHF (peptide)
peptide: VYTDISHHF
B15: VHDFTLPSW (peptide)
peptide: VHDFTLPSW
B16: IYNFRLWDF (peptide)
peptide: IYNFRLWDF
B17: NYLLYVSDF (peptide)
peptide: NYLLYVSDF
B18: FFTDKTLSF (peptide)
peptide: FFTDKTLSF
B19: YFVDVTTRI (peptide)
peptide: YFVDVTTRI
B20: GTDQTGKGLEY (peptide)
peptide: GTDQTGKGLEY
B21: EVEGVIDGTYDY (peptide)
peptide: EVEGVIDGTYDY
B22: NHITDTSLNLF (peptide)
peptide: NHITDTSLNLF
B23: HVKDATMGY (peptide)
peptide: HVKDATMGY
B24: ILPDITTTY (peptide)
peptide: ILPDITTTY
B25: VTRDDTASY (peptide)
peptide: VTRDDTASY
B26: HVSDVTVNY (peptide)
peptide: HVSDVTVNY
B27: WLDRSTILY (peptide)
peptide: WLDRSTILY
B28: HVDNSNLNY (peptide)
peptide: HVDNSNLNY
B29: RSLDCTVKTY (peptide)
peptide: RSLDCTVKTY
B30: YIDDVTLI (peptide)
peptide: YIDDVTLI
B31: FTDTSSYEY (peptide)
peptide: FTDTSSYEY
B32: WSDWSNPAY (peptide)
peptide: WSDWSNPAY
B33: ILFSDSTRLSF (peptide)
peptide: ILFSDSTRLSF
B34: RVDDITDQF (peptide)
peptide: RVDDITDQF
B35: TANYDTSHY (peptide)
peptide: TANYDTSHY
B36: PSDLSVFTSY (peptide)
peptide: PSDLSVFTSY
B37: EVQDHSTSSY (peptide)
peptide: EVQDHSTSSY
B38: LSDLSLADI (peptide)
peptide: LSDLSLADI
B39: TFVDASRTLY (peptide)
peptide: TFVDASRTLY
B40: VTDVTEEHY (peptide)
peptide: VTDVTEEHY
B41: VTQDDTGFY (peptide)
peptide: VTQDDTGFY
B42: GQYDDSLQAY (peptide)
peptide: GQYDDSLQAY
B43: ITDTSLNLF (peptide)
peptide: ITDTSLNLF
B44: GVDDTSLLY (peptide)
peptide: GVDDTSLLY
B45: ISDITEKNSGLY (peptide)
peptide: ISDITEKNSGLY
B46: LTEVEKDATALY (peptide)
peptide: LTEVEKDATALY
B47: ITDDTVQTY (peptide)
peptide: ITDDTVQTY
B48: YSIDVTNVM (peptide)
peptide: YSIDVTNVM
B49: PSDGSMHNY (peptide)
peptide: PSDGSMHNY
B50: RSIDVTGQGF (peptide)
peptide: RSIDVTGQGF
B51: GTDKQDSTLRY (peptide)
peptide: GTDKQDSTLRY
B52: QVDGSLLVI (peptide)
peptide: QVDGSLLVI
B53: LTNDQTLRL (peptide)
peptide: LTNDQTLRL
B54: VTETMGIDGSAY (peptide)
peptide: VTETMGIDGSAY
B55: HADLTTLTF (peptide)
peptide: HADLTTLTF
B56: FTDLITDESINY (peptide)
peptide: FTDLITDESINY
B57: ISDGMDSSAHY (peptide)
peptide: ISDGMDSSAHY
B58: MTDVDRDGTTAY (peptide)
peptide: MTDVDRDGTTAY
B59: LSDLTCNNY (peptide)
peptide: LSDLTCNNY
B60: TSDTSQYDTY (peptide)
peptide: TSDTSQYDTY

The first assay concerns the target T1, HLA-A*24:02 (human).
T1 construct: Peptide-receptive MHC class I monomer after UV cleavage of a UV-sensitive ligand
The experiment in a line: UV-ligand exchange, anti-b2m ELISA; peptide exchange yield grade. The source says: (§1) Candidate peptides for T cell based therapies according to the present invention were further tested for their MHC binding capacity (affinity). The individual peptide-MHC complexes were produced by UV-ligand exchange, where a UV-sensitive peptide is cleaved upon UV-irradiation and exchanged with the peptide of interest as analyzed. Only peptide candidates that can effectively bind and stabilize the peptide-receptive MHC molecules prevent dissociation of the MHC complexes. To determine the yield of the exchange reaction, an ELISA was performed based on the detection of the light chain (β2m) of stabilized MHC complexes. The assay was performed as generally described in Rodenko et al. (Rodenko et al., 2006).
(§2) 96 well MAXISorp plates (NUNC) were coated over night with 2 μg/ml streptavidin in PBS at room temperature, washed 4× and blocked for 1h at 37° C. in 2% BSA containing blocking buffer. Refolded HLA-A*02:01/MLA-001 monomers served as standards, covering the range of 15-500 ng/ml. Peptide-MHC monomers of the UV-exchange reaction were diluted 100-fold in blocking buffer. Samples were incubated for 1 h at 37° C., washed four times, incubated with 2 μg/ml HRP conjugated anti-β2m for 1h at 37° C., washed again and detected with TMB solution that is stopped with […]. Absorption was measured at 450 nm. Candidate peptides that show a high exchange yield (preferably higher than 50%, most preferred higher than 75%) are generally preferred for a generation and production of antibodies or fragments thereof, and/or T cell receptors or fragments thereof, as they show sufficient avidity to the MHC molecules and prevent dissociation of the MHC complexes.
Background: In an ELISA, binding on a coated surface is turned into a signal by an enzyme label.
The molecule B1 gave a peptide exchange yield of 20 to 50%.
Same read-out and setting: to B2 belongs 10 to 20%.
Same read-out and setting: for B3 the value was 50 to 75%.
Same read-out and setting: for B4 the value was at least 75%; for B5, at least 75%.
For B6, the peptide exchange yield lay within 20 to 50%.
On the same count and under the same terms, to B7 belongs 50 to 75%.
Still for that read-out and setting: to B8 belongs at least 75%.
Consider B9, for which the peptide exchange yield fell in the range of 20 to 50%.
B10 displayed a peptide exchange yield of at least 75%.
The same measure, in the same setting: for B11 the value was at least 75%; for B12, 50 to 75%.
Still for that read-out and setting: for B13 the value was 10 to 20%; for B14, at least 75%.
Still for that read-out and setting: to B15 belongs 20 to 50%; to B16, at least 75%; to B17, at least 75%.
As for B18, the peptide exchange yield was at least 75%.
The same measure, in the same setting: for B19 the value was 50 to 75%.

The target of another assay is T2, HLA-A*01:01 (human).
T2 construct: Peptide-receptive MHC class I monomer after UV cleavage of a UV-sensitive ligand; captured on streptavidin plates, detected with anti-b2m
The assay is described as above.
Description: as §1, §2
For B20, the peptide exchange yield lay within 50 to 75%.
The same measure, in the same setting: for B21 the value was at least 75%.
The same measure, in the same setting: for B22 the value was 20 to 50%.
B23 gave a peptide exchange yield of 50 to 75%.
With B24, the peptide exchange yield was 20 to 50%.
The same measure, in the same setting: for B25 the value was 20 to 50%.
Same read-out and setting: to B26 belongs 20 to 50%; to B27, at least 75%; to B28, at least 75%.
In turn, B29 displayed a peptide exchange yield of 50 to 75%.
Same read-out and setting: for B30 the value was 20 to 50%; for B31, at least 75%.
On the same count and under the same terms, to B32 belongs at least 75%; to B33, 50 to 75%; to B34, 20 to 50%.
Same read-out and setting: to B35 belongs 20 to 50%.
In the case of B36, the peptide exchange yield is at least 75%.
Still for that read-out and setting: to B37 belongs 20 to 50%; to B38, 20 to 50%; to B39, at least 75%.
In turn, B40 yielded a peptide exchange yield of at least 75%.
The same measure, in the same setting: to B41 belongs at least 75%; to B42, 20 to 50%; to B43, at least 75%.
Still for that read-out and setting: to B44 belongs at least 75%; to B45, at least 75%.
The same measure, in the same setting: to B46 belongs at least 75%; to B47, at least 75%.
Molecule B48 had a peptide exchange yield of 50 to 75%.
The same measure, in the same setting: to B49 belongs at least 75%.
Still for that read-out and setting: to B50 belongs 20 to 50%.
Molecule B51 yielded a peptide exchange yield of at least 75%.
The same measure, in the same setting: for B52 the value was 20 to 50%.
In the case of B53, the peptide exchange yield lay within 50 to 75%.
As to B54, the peptide exchange yield was at least 75%.
Still for that read-out and setting: to B55 belongs 20 to 50%; to B56, at least 75%; to B57, at least 75%.
On the same count and under the same terms, for B58 the value was at least 75%.
Still for that read-out and setting: to B59 belongs at least 75%.
For the molecule B60, the peptide exchange yield is 50 to 75%.
